Source: the supplement of paper PMC10567573

B1: STX5 (parent)
chain: RSEFTLMAKRIGKDLSNTFAKLEK
B2: ZNF649 (parent)
chain: EHERAHRGEKPHGCSLCGKAFYKR

Variants of: B1
Assay: protein stability index of a GFP-peptide fusion (GPS, HEK-293T) (PSI 1-6); higher = more stable
Conditions: c terminus: a fixed tail appended
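Note: lentivirally expressed fusions sorted by FACS into six bins by GFP to DsRed ratio, PSI derived from sequencing read proportions per bin multiplied by bin number.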

Protein stability index: each site, then its substitutions
K24: G 4.41, H 2.46, L 2.38, M 3.26, N 3.22, P 2.42, Q 1.66, R 2.5, S 1.63, T 3.14, V 2.42, Y 3.59

Variants of: B2
Assay: as above
Conditions: c terminus: a fixed tail appended

Protein stability index of substitutions, site by site:
E1: A 2.16, D 2.2, H 1.86, I 1.49, K 3.37, M 1.88, N 1.69, P 2.15, Q 2.07, R 1.7, T 3.46, V 2.77, W 1.85, Y 2.38
H2: C 2.01, D 2, F 2.8, G 1.02, I 2, L 1.6, M 2.06, N 1.93, P 1.98, Q 3.21, S 1.75, T 3.15, V 1.07, W 1.03, Y 1.65
E3: A 1.5, C 2.74, D 2.01, F 2.67, G 1.81, H 2.72, I 1.78, L 1.92, M 1.61, N 2.47, R 1.96, T 1.89, V 3.49, Y 1.95
R4: A 1.97, C 3.31, E 2.14, G 2.55, H 2.05, I 1.91, M 2.08, N 2.23, P 2.6, Q 1.59, T 1.95, V 2.93, W 1.88, Y 1.5
A5: C 2.8, D 1.88, E 1.83, F 2.8, G 1.52, H 2.23, I 1.34, K 1.74, L 2.24, N 2.18, Q 2.42, R 2.76, S 1.09, T 3.23, V 1.62, W 1.62, Y 2.58
H6: D 2.01, E 1.06, F 2.04, G 1.21, I 1.54, K 1.04, L 1.61, M 2.27, N 2.06, Q 1.31, V 1.58, W 1.78, Y 1.61
R7: C 1.65, D 1.98, E 1.95, F 1.32, G 1.61, H 2.31, I 1.69, K 2.34, L 1.48, M 2.72, N 3.32, P 2.63, Q 2.02, S 2.23, W 2.02, Y 1.82
G8: D 1.93, E 2.27, F 2.22, H 2.83, I 2.01, K 2.27, M 1.8, N 2.12, P 2.78, Q 3.17, S 1.99, T 1.91, W 2.21, Y 3.18
E9: A 2.28, C 3.6, F 2.21, H 2.13, I 1.86, L 2.16, M 2.08, N 1.85, R 3.66, S 1.72, T 1.81, V 1.42, W 1.59, Y 2.19
K10: A 2.12, D 2.27, E 2.87, F 2.98, I 1.69, M 2.28, N 1.19, Q 3.07, R 1.01, S 1.66, T 3.02, V 1.76, W 1.67, Y 1.7
P11: A 2.08, C 2.51, E 3.19, G 1.55, H 2.41, M 2.31, N 2.33, R 1.45, T 2.54, V 1.79
